Reference: the supplement of paper PMC7125110
± gives the standard error. Fewer inactive variants are shown than the library holds.

B1: glmS ribozyme (parent)
chain: AUAAAAGCGCCAGAACUACAGAAAUGUAGUUGACGAGGAGGAGGUUUAUCGAAUUUUCGGCGGAUGCCUCCAAA

Assays:
Settings in all cases: with glucosamine-6-phosphate
glucosamine-6-phosphate [1] = variants of: B1; experiment: self-cleavage kobs at 640 uM GlcN6P; higher = faster cleavage; RNA array
In short: (§1)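 Weighted Michaelis–Menten fits across concentrations supplied kcat and KM, based on kobs from one- or two-exponential decay fits to normalised per-tile medians. The data came from barcoded ribozyme variants transcribed in situ by E. coli RNA polymerase on sequenced MiSeq chips and tracked at 37 °C by a hybridised Cy3 probe. Glucosamine-6-phosphate (40 μM to 10 mM) in HEPES/KCl/Mg(OAc)2 buffer was flowed in.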

glucosamine-6-phosphate [2] = variants of: B1; experiment: self-cleavage kobs at 10000 uM GlcN6P; higher = faster cleavage; RNA array
In short: as §1

glucosamine-6-phosphate [3] = variants of: B1; experiment: self-cleavage kobs at 2500 uM GlcN6P; higher = faster cleavage; RNA array
In short: as §1

Variant	self-cleavage kobs at 640 uM GlcN6P (glucosamine-6-phosphate [1]) [s⁻¹]	self-cleavage kobs at 10000 uM GlcN6P (glucosamine-6-phosphate [2]) [s⁻¹]	self-cleavage kobs at 2500 uM GlcN6P (glucosamine-6-phosphate [3]) [s⁻¹]
U30C G37U G44C C58U C67U	< 1e-05		
C8A C11A G44A	< 1e-05		
U31G G32U A53U A64G	0.000197 ± 6.1e-05		
G38A U54G C71U	< 1e-05		
A36G U47G	< 1e-05	< 1e-05	
C34G A42C A52U C58U U65G	< 1e-05		< 1e-05
C10U U31C A52U	< 1e-05		
A12G G37A A48G G63C	< 1e-05		
G29U G51A A64U U69G	0.000114 ± 3.7e-05		0.000294 ± 9.7e-05
G9C C10G A14G G41U A64C	< 1e-05		< 1e-05
U30A G40U G63A A64G	< 1e-05		
U31A C58U U69G	0.000109 ± 4.2e-05		7.72e-05 ± 2.2e-05
G43A U55G C61U G62C	< 1e-05		
G7C A12U G41U	< 1e-05		< 1e-05
C8U A39U G59C	< 1e-05		
G13U G40A G43C U49C C68G	< 1e-05		
A52G G66A	0.000162 ± 3e-05	0.000481 ± 0.00017	0.000203 ± 4.6e-05

Variant	self-cleavage kobs at 640 uM GlcN6P (glucosamine-6-phosphate [1]) [s⁻¹]	self-cleavage kobs at 10000 uM GlcN6P (glucosamine-6-phosphate [2]) [s⁻¹]	self-cleavage kobs at 2500 uM GlcN6P (glucosamine-6-phosphate [3]) [s⁻¹]
U2A	0.0236 ± 0.0098		
G35A G37A U46A G51C G59U	< 1e-05		< 1e-05
G9C A12C G13U G44U C67A	< 1e-05		
A14U G26A C68G	5e-05 ± 2e-05		4.16e-05 ± 1.8e-05
G38A A48C	< 1e-05	< 1e-05	< 1e-05
G13A A42C G44U	< 1e-05		
G29A A33G U69A	5.13e-05 ± 2.3e-05		4.9e-05 ± 1.9e-05
C8U G29A U31A G37U A52G C71G	0.0078 ± 0.0033		
U31C A33U A36U G38C C58U U65G G66C C71U	< 1e-05		< 1e-05
U31C A53U C67U	0.000239 ± 6.6e-05		0.00045 ± 9.3e-05
G7A C8A U65C	< 1e-05		< 1e-05
C10U U46A U49A G62A	< 1e-05		< 1e-05
U31G G35C G51U	< 1e-05		
G13C A14G A42G	0.000198 ± 6.9e-05		0.000379 ± 9.2e-05
C11U G29U A52C	< 1e-05		
G7A G9U G13U A48C	< 1e-05		
